{
  "source": "paper PMC3056899",
  "key": {"[1]": {"target": "T1, CFIm25 delN21 (crystal);CFIm68 N13-235 (crystal) (human;human, UniProt O43809;Q16630 21-227;13-235, |)", "T1 sequence (O43809 21-227, chain 1 of 2)": "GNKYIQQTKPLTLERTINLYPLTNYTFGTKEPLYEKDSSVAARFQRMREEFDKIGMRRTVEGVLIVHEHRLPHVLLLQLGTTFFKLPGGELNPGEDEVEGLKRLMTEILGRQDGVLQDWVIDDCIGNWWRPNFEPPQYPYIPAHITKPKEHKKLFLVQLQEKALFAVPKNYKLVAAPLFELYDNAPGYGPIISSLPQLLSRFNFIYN", "T1 sequence (Q16630 13-235, chain 2 of 2)": "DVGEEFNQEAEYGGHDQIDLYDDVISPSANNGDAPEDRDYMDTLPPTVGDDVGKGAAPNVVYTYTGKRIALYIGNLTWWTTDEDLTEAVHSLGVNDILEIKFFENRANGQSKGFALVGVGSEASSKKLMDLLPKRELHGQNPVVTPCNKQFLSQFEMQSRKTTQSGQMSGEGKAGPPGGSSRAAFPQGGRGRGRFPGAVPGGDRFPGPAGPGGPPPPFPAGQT", "assay": "X-ray crystallography"}, "[2]": {"target": "T1, CFIm25 delN21 (crystal);CFIm68 N13-235 …", "assay": "X-ray crystallography", "remark": "listed apart in the source"}, "[3]": {"target": "CFIm25;CFIm68 RRM (human;human, UniProt O43809;Q16630 1-227;13-235, |)", "sequence (O43809 whole entry, chain 1 of 2)": "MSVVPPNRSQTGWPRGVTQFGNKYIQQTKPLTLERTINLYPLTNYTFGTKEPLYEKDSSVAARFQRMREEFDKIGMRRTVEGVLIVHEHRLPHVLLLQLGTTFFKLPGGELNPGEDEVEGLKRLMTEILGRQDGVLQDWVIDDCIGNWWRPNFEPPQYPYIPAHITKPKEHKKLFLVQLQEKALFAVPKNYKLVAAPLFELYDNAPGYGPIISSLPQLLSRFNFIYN", "sequence (Q16630 13-235, chain 2 of 2)": "as the sequence (Q16630 13-235, chain 2 of 2) above", "assay": "EMSA"}, "[4]": {"target": "CFIm25 (human, UniProt O43809 1-227)", "sequence (O43809 whole entry)": "as the sequence (O43809 whole entry, chain 1 of 2) above", "assay": "EMSA"}},
  "note": "Read-outs that look alike come from different tables or passages of the source.",
  "data": [
    {"binder": "UUGUAU (ssRNA)", "note": "[6-mer RNA]", "values": [
      {"measurement": "binding result", "setting": "[1]", "result": "binds"}
    ]},
    {"binder": "UAUUUUGUA (ssRNA)", "note": "[9-mer RNA]", "values": [
      {"measurement": "binding result", "setting": "[2]", "result": "binds"}
    ]},
    {"binder": "GGGUGUAAAACAGAUGAUGUAU (ssRNA)", "note": "[PAPOLA upstream element as printed]", "values": [
      {"measurement": "Kd", "setting": "[3]", "result": 222, "unit": "nM"},
      {"measurement": "Kd", "setting": "[4]", "result": 645, "unit": "nM"}
    ]}
  ]
}
